Reference: paper PMC10786891, “Massively parallel profiling of RNA-targeting CRISPR-Cas13d”
Substitutions are numbered along the chain they refer to. Names and notes keep the numbering of the source.

B1: target 1 insC 3' of 17,insA 3' of 17 (mixed)
RNA 1: CACCCGUGCAAAAAUGCAGGGGUCUAAAACUGAGCGGAUAACCUCUCUAUGG
RNA 2: GGGAAUGGAUCCACAUCUACGAAUUCGUACCAUAGCAAGAGGUUAUCCGCUCACCGAGAUCGGAAGAGCACACGU
B2: target 1 insA 3' of 21,insA 3' of 12 (mixed)
RNA 1: B1 RNA 1
RNA 2: B1 RNA 2 with U33A, A34U, G35A, C36G, A38G, G39A, A40G, G42A
B3: target 1 insA 3' of 19,insU 3' of 6 (mixed)
RNA 1: B1 RNA 1
RNA 2: GGGAAUGGAUCCACAUCUACGAAUUCGUACCAUAAGAGAGGUUAUCCUGCUCACCGAGAUCGGAAGAGCACACGU
B4: target 1 U8A,G13U (mixed)
RNA 1: B1 RNA 1
RNA 2: GGGAAUGGAUCCACAUCUACGAAUUCGUACCAUAGAGAUGUUAACCGCUCACCGAGAUCGGAAGAGCACACGU
B5: target 1 A1G,G12C (mixed)
RNA 1: B1 RNA 1
RNA 2: B4 RNA 2 with U39G, G40C, A44U, A51G
B6: target 1 C6G,A9U (mixed)
RNA 1: B1 RNA 1
RNA 2: B4 RNA 2 with U39G, A43U, A44U, C46G
B7: target 1 A1C,G12C (mixed)
RNA 1: B1 RNA 1
RNA 2: B4 RNA 2 with U39G, G40C, A44U, A51C
B8: target 1 insU 3' of 4,insC 3' of 3 (mixed)
RNA 1: B1 RNA 1
RNA 2: GGGAAUGGAUCCACAUCUACGAAUUCGUACCAUAGAGAGGUUAUCCGCUUCCACCGAGAUCGGAAGAGCACACGU
B9: target 1 G12C (mixed)
RNA 1: B1 RNA 1
RNA 2: B4 RNA 2 with U39G, G40C, A44U
B10: target 1 insA 3' of 15,insC 3' of 12 (mixed)
RNA 1: B1 RNA 1
RNA 2: B1 RNA 2 with C36A, A37G, G39A, A40G, G42C
B11: target 1 insG 3' of 18,insC 3' of 1 (mixed)
RNA 1: B1 RNA 1
RNA 2: B3 RNA 2 with A35G, U48G, G49C, C50U, U51C, C52A, A53C
B12: target 1 insA 3' of 19,insU 3' of 13 (mixed)
RNA 1: B1 RNA 1
RNA 2: B3 RNA 2 with G41U, U42G, A44U, U45A, C46U, U48C
B13: target 1 insG 3' of 18,insG 3' of 1 (mixed)
RNA 1: B1 RNA 1
RNA 2: B3 RNA 2 with A35G, U48G, G49C, C50U, U51C, C52A, A53G
B14: target 1 insG 3' of 16,insU 3' of 9 (mixed)
RNA 1: B1 RNA 1
RNA 2: B3 RNA 2 with A35G, G36A, A37G, C46U, U48C
B15: target 1 insU 3' of 15,insA 3' of 13 (mixed)
RNA 1: B1 RNA 1
RNA 2: B1 RNA 2 with C36A, A37G, A38U, G39A, A40G, G41A
B16: target 1 insC 3' of 22,insU 3' of 1 (mixed)
RNA 1: B1 RNA 1
RNA 2: B3 RNA 2 with A32C, U33A, A34U, U48G, G49C, C50U, U51C, C52A, A53U
B17: target 1 insG 3' of 9,insA 3' of 8 (mixed)
RNA 1: B1 RNA 1
RNA 2: B8 RNA 2 with U44G, C45U, C46A, G47C, U49G, U50C, C51U
B18: target 1 A20U,C22A (mixed)
RNA 1: B1 RNA 1
RNA 2: B4 RNA 2 with C30A, A32U, U39G, A44U
B19: target 1 A9C,C22U (mixed)
RNA 1: B1 RNA 1
RNA 2: B4 RNA 2 with C30U, U39G, A43C, A44U
B20: target 1 complement block 3-12 (mixed)
RNA 1: B1 RNA 1
RNA 2: GGGAAUGGAUCCACAUCUACGAAUUCGUACCAUAGAGAGCAAUAGGCGACACCGAGAUCGGAAGAGCACACGU
B21: target 1 insC 3' of 18,insU 3' of 7 (mixed)
RNA 1: B1 RNA 1
RNA 2: B3 RNA 2 with A35C, C47U, U48C
B22: target 1 insU 3' of 15,insU 3' of 2 (mixed)
RNA 1: B1 RNA 1
RNA 2: B3 RNA 2 with A35G, G36A, A37G, G38U, U48G, G49C, C50U, U51C, C52U
B23: target 1 insC 3' of 22,insG 3' of 1 (mixed)
RNA 1: B1 RNA 1
RNA 2: B3 RNA 2 with A32C, U33A, A34U, U48G, G49C, C50U, U51C, C52A, A53G
B24: target 1 insA 3' of 15,insU 3' of 12 (mixed)
RNA 1: B1 RNA 1
RNA 2: B1 RNA 2 with C36A, A37G, G39A, A40G, G42U
B25: target 1 insU 3' of 9,insG 3' of 1 (mixed)
RNA 1: B1 RNA 1
RNA 2: B8 RNA 2 with C45U, G47C, C48G, U49C, C52A, A53G
B26: target 1 insC 3' of 22,insC 3' of 1 (mixed)
RNA 1: B1 RNA 1
RNA 2: B3 RNA 2 with A32C, U33A, A34U, U48G, G49C, C50U, U51C, C52A, A53C
B27: target 1 insG 3' of 6,insG 3' of 3 (mixed)
RNA 1: B1 RNA 1
RNA 2: B8 RNA 2 with C48G, U49C, C51G
B28: target 1 insA 3' of 7,insA 3' of 3 (mixed)
RNA 1: B1 RNA 1
RNA 2: B8 RNA 2 with C46A, G47C, C48G, U49C, C51A
B29: target 1 insC 3' of 15,insA 3' of 5 (mixed)
RNA 1: B1 RNA 1
RNA 2: B3 RNA 2 with A35G, G36A, A37G, G38C, U48G, G49A
B30: target 1 insU 3' of 16,insU 3' of 16 (mixed)
RNA 1: B1 RNA 1
RNA 2: B1 RNA 2 with C36A, A37U, A38U
B31: target 1 G5A,G17U (mixed)
RNA 1: B1 RNA 1
RNA 2: B4 RNA 2 with G35U, U39G, A44U, G47A
B32: target 1 insG 3' of 22,insC 3' of 1 (mixed)
RNA 1: B1 RNA 1
RNA 2: GGGAAUGGAUCCACAUCUACGAAUUCGUACGCAUAGAGAGGUUAUCCGCUCACCCGAGAUCGGAAGAGCACACGU
B33: target 1 A1G,U10C (mixed)
RNA 1: B1 RNA 1
RNA 2: B4 RNA 2 with U39G, U42C, A44U, A51G

These binders were tested against T1, EsCas13d, nuclease-dead (Eubacterium siraeum, UniProt B0MS50, R295A;H300A;R849A;H854A) (assay: crRNA (strand 1, pre-loaded); Mg2+; 40 mM Tris-HCl pH 7.5, 150 mM NaCl, 6 mM MgCl2, 1 mM DTT, 0.1% Tween-20, 0.2 mg/ml BSA; 25 C; 10 min per concentration, then washed). Conditions: tags: His6-TwinStrep-SUMO cleaved; N-terminal SNAP kept (SNAP-Surface 488); label: 3' end held by stalled T7 RNA polymerase.
T1 sequence: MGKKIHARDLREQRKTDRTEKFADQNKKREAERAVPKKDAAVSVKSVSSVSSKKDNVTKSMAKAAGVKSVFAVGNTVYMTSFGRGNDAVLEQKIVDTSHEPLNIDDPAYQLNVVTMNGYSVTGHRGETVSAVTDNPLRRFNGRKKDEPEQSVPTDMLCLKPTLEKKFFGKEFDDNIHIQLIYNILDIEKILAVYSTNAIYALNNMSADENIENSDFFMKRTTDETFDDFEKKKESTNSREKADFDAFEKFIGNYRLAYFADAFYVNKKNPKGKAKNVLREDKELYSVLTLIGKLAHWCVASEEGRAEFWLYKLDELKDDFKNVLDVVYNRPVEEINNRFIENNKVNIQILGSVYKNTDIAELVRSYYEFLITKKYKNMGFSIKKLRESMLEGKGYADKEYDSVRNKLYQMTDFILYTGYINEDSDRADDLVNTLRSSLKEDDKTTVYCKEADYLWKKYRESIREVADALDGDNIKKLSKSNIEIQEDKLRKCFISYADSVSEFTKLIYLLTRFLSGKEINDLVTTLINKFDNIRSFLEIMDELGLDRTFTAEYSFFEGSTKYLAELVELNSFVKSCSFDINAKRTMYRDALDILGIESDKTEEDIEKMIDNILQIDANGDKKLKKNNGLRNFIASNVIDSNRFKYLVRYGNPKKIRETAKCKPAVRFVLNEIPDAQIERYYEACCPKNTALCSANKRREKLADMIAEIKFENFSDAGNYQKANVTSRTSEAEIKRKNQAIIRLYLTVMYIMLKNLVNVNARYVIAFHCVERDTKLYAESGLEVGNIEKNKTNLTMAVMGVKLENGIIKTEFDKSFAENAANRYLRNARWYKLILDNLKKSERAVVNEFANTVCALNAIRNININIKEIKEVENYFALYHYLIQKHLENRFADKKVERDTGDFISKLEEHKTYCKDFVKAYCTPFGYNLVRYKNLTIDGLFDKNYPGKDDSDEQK
In the case of B1, the Kd is reported as 20.3 ± 1.5 nM. B2 was tested, and the Kd was 48 ± 5 nM. With B3 the Kd was 22.9 ± 1.6 nM. For B4, the Kd was 53 ± 8 nM. Work on B5 yielded a Kd of 12.2 ± 0.9 nM. Binder B6 has a Kd of 6.92 ± 0.27 nM. Binder B7 has a Kd of 19 ± 2.1 nM. Work on B8 yielded a Kd of 76 ± 22 nM. For B9, the Kd was 8.3 ± 0.7 nM. B10 gave a Kd of 31 ± 6 nM. B11 gave a Kd of 52 ± 4 nM. B12 gave a Kd of 35 ± 13 nM. In the case of B13, the Kd is reported as 55 ± 10 nM. With B14 the Kd was 28.9 ± 2.2 nM. In the case of B15, the Kd is reported as 10.2 ± 0.7 nM. B16 was tested, and the Kd was 20.6 ± 1.9 nM. B17 showed a Kd of 19.6 ± 1 nM. With B18 the Kd was 23.9 ± 2.8 nM. Binder B19 has a Kd of 54 ± 12 nM. B20 showed a Kd of 14.4 ± 0.5 nM. B21 was tested, and the Kd was 67 ± 5 nM. With B22 the Kd was 11.2 ± 0.6 nM. Binder B23 has a Kd of 15.3 ± 1.2 nM. B24 was tested, and the Kd was 4.9 ± 0.4 nM. B25 was tested, and the Kd was 18.9 ± 2.5 nM. Work on B26 yielded a Kd of 17.2 ± 1 nM. Work on B27 yielded a Kd of 7.3 ± 0.5 nM. With B28 the Kd was 5.5 ± 0.4 nM. For B29, the Kd was 6.6 ± 0.5 nM. B30 was tested, and the Kd was 38 ± 5 nM. Binder B31 has a Kd of about 100 nM. In the case of B32, the Kd is reported as 25.6 ± 1.6 nM. In the case of B33, the Kd is reported as 17.3 ± 0.9 nM.
